Assay results from patent publication US20070298997A1, “Compounds useful in treating diabetic microvascular complications and age-related macular degeneration” (priority 2003, published 2007).

Tested on: Retinal capillary endothelial cells (RCEC)
Test: Quantification of viable cells by MTT assay, RCEC
Format: cell-based, bovine
Procedure: FIG. 2 illustrates the specific inhibition of endothelial cell proliferation by recombinant kallistatin. RCEC were treated with recombinant kallistatin at concentrations of 5,10, 20, 40, 80 and 160 nM for 72 h. Viable cells were quantified by MTT assay. […] This effect appeared to be kallistatin concentration-dependent, with an apparent IC50 of 50 nM (FIG. 2) which is similar to that of K5, a known angiogenic inhibitor (Zhang et al., 2001).
FIG. 7 illustrates the effects of B1 and B2 kinin receptor antagonists on RCEC. In order to test whether the anti-angiogenic activity of kallistatin is via reducing kinin production by inhibiting kallikrein activity, RCEC were treated with 5 μM des-Arg^9-[Leu^8]-bradykinin, a specific antagonist of the B1 kinin receptor or Hoe-140, a specific B2 kinin receptor antagonist, in the presence or absence of 40 nM kallistatin for 48 h, and viable cells were quantified by MTT assay.
Quantification of viable cells: Cells were plated in 12-well plates in triplicate and cultured in the growth medium until they reached 60-70% of confluency. The culture medium was replaced with a medium containing 1% fetal bovine serum (FBS). Recombinant kallistatin was added to the cover medium to various concentrations and incubated with the cells for 72 h. The viable cells were quantified by the MTT (3-[4,5-dimethylthiazol-2-yl]-2,5-dephenyl tetrazolium bromid, Roche, Mannheim, Germany) assay following a protocol recommended by the manufacturer. The effect of kallistatin on viable cell number was analyzed using Student's t test.

B1: kallistatin: Recombinant His-tagged rat kallistatin (serpin, SEQ ID NO:1) expressed in E. coli and affinity-purified (protein, listed as Homo sapiens)
chain: DGILGRDTLPHEDQGKGRQLHSLTLASINTDFTLSLYKKLALRNPDKNVVFSPLSISAALAILSLGAKDSTMEEILEVLKFNLTEITEEEIHHQGFGHLLQRLSQPEDQAEINTGSALFIDKEQPILSEFQEKTRALYQAEAFVADFKQCNEAKKFINDYVSNQTQGKIAELFSELDERTSMVLVNYLLFKGKWKVPFNPNDTFESEFYLDEKRSVKVPMMKIKDLTTPYIRDEELSCSVLELKYTGNASALFILPDQGKMQQVESSLQPETLKKWKDSLRPRIISELRMPKFSISTDYNLEEVLPELGIRKIFSQQADLSRITGTKNLHVSQVVHKAVLDVDETGTEGAAATAVTAALKSLPQTIPPLNFNRPFMLVITDNNGQSVFFMGKVTNPM
modifications: His tag
5 nM, 72 h, P<0.05
  viable cells vs control: significantly fewer viable cells than the control cells
40 nM, 48 h, P<0.01
  viable cell numbers, % of the control: approximately 50 % of the control
72 h, read-out: apparent IC50, viable cells
  IC50: 50 nM
